# Source: publication PMC6073210, “Adducin‐1 is essential for spindle pole integrity through its interaction with TPX2” (EMBO Reports, 2018)
# Changes are numbered by the printed parent chain.
# B1: TPX2, endogenous in HeLa cells (natural protein, human (endogenous in HeLa), UniProt Q9ULW0 1-747, looked up)
# chain: MSQVKSSYSYDAPSDFINFSSLDDEGDTQNIDSWFEEKANLENKLLGKNGTGGLFQGKTPLRKANLQQAIVTPLKPVDNTYYKEAEKENLVEQSIPSNACSSLEVEAAISRKTPAQPQRRSLRLSAQKDLEQKEKHHVKMKAKRCATPVIIDEILPSKKMKVSNNKKKPEEEGSAHQDTAEKNASSPEKAKGRHTVPCMPPAKQKFLKSTEEQELEKSMKMQQEVVEMRKKNEEFKKLALAGIGQPVKKSVSQVTKSVDFHFRTDERIKQHPKNQEEYKEVNFTSELRKHPSSPARVTKGCTIVKPFNLSQGKKRTFDETVSTYVPLAQQVEDFHKRTPNRYHLRSKKDDINLLPSKSSVTKICRDPQTPVLQTKHRARAVTCKSTAELEAEELEKLQQYKFKARELDPRILEGGPILPKKPPVKPPTEPIGFDLEIEKRIQERESKKKTEDEHFEFHSRPCPTKILEDVVGVPEKKVLPITVPKSPAFALKNRIRMPTKEDEEEDEPVVIKAQPVPHYGVPFKPQIPEARTVEICPFSFDSRDKERQLQKEKKIKELQKGEVPKFKALPLPHFDTINLPEKKVKNVTQIEPFCLETDRRGALKAQTWKHQLEEELRQQKEAACFKARPNTVISQEPFVPKKEKKSVAEGLSGSLVQEPFQLATEKRAKERQELEKRMAEVEAQKAQQLEEARLQEEEQKKEELARLRRELVHKANPIRKYQGLEIKSSDQPLTVPVSPKFSTRFHC
# notes: TPX2, endogenous protein of HeLa cells detected with anti-TPX2; source: endogenous, HeLa whole-cell lysate
# B2: GST-TPX2 aa 120–370 fusion protein (domain or fragment, human, UniProt Q9ULW0 120-370, looked up)
# chain: RSLRLSAQKDLEQKEKHHVKMKAKRCATPVIIDEILPSKKMKVSNNKKKPEEEGSAHQDTAEKNASSPEKAKGRHTVPCMPPAKQKFLKSTEEQELEKSMKMQQEVVEMRKKNEEFKKLALAGIGQPVKKSVSQVTKSVDFHFRTDERIKQHPKNQEEYKEVNFTSELRKHPSSPARVTKGCTIVKPFNLSQGKKRTFDETVSTYVPLAQQVEDFHKRTPNRYHLRSKKDDINLLPSKSSVTKICRDPQTP
# notes: TPX2, Homo sapiens, aa 120–370 of the full-length cDNA (aa 1–747), subcloned into pGEX-2T; pGEX-2T probably places GST at the N-terminus; also called TPX2 aa 120–370 fragment; GST-tagged TPX2 aa 120–370; source: E. coli BL21, purified on glutathione agarose beads
# Key:
# [1] = biological target: TPX2 (UniProt Q9ULW0); assay: anti-FLAG resin co-IP, TPX2 blot; settings: reference: FLAG-ADD1 wild type, M phase; sites S726
# [2] = biological target: T1, FLAG-ADD1 S726A mutant, expressed in HeLa cells (UniProt P35611 1-737, S726A); assay: co-IP; HeLa cells expressing FLAG-ADD1 WT or S726A, synchronized at the M phase (nocodazole); lysates in TBS buffer (1% Triton X-100, 50 mM Tris-HCl pH 7.4, 150 mM NaCl) incubated with anti-FLAG M2 affinity resins for 16 h, eluted with FLAG peptide, blotted with anti-FLAG and anti-TPX2; settings: partners not purified
# T1 construct: adducin-1 (ADD1) with S726A; source: HeLa cells expressing FLAG-ADD1 S726A (lentiviral vector pLAS3w.Pneo), in whole-cell lysate
# T1 sequence (looked up): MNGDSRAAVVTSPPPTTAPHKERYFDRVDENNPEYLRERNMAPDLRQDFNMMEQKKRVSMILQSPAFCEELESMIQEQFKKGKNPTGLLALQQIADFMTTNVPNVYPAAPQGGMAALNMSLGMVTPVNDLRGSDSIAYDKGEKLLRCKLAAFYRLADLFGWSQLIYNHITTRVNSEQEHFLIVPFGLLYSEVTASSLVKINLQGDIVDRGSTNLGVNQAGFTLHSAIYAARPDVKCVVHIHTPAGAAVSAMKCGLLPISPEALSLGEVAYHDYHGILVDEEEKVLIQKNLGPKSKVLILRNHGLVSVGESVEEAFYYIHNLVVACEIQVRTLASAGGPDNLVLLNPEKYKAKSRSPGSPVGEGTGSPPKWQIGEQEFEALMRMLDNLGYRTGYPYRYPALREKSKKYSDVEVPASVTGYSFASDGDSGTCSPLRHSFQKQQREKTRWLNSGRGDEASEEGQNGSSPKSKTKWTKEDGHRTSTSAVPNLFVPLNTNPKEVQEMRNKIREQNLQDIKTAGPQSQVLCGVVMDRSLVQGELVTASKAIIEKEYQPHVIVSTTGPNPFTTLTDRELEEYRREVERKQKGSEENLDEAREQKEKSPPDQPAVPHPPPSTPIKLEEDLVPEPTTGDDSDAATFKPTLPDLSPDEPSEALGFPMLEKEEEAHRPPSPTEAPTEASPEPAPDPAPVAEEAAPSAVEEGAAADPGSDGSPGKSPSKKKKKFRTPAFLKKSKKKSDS
# [3] = biological target: T2, FLAG-ADD1 WT (adducin-1), transiently expressed in HEK293 cells (UniProt P35611 1-737); assay: pull-down; GST-TPX2 fusion proteins immobilised on glutathione agarose beads, incubated with 25 μg of lysates from HEK293 cells expressing FLAG-tagged ADD1 forms at 4°C for 60 min; washed with TBS buffer; blot with anti-FLAG; settings: one partner purified
# T2 construct: adducin-1 (ADD1); pCMV-3Tag-3A probably adds a C-terminal 3x FLAG; also called FLAG-tagged ADD1; 293/FLAG-ADD1; source: HEK293, transiently transfected, in lysate
# T2 sequence (looked up): T1 sequence (looked up) with A726S
molecule,measurement,setting,value
"adducin-1 (ADD1) (from UniProt P35611) FLAG-ADD1 S726A, M phase",TPX2 co-IP binding relative to wild type,[1],weaker
B1,percent decrease of the interaction relative to FLAG-ADD1 WT,[2],~50%
B2,binding result,[3],binds
